This is an account of results in US7842469B2, “Bioluminescence resonance energy transfer (BRET) systems and methods of use thereof” (Stanford University, priority 2005, dated 2010).

Like-named read-outs stand apart in the source and are kept apart here.

Data set [1] can be described thus: Luciferase activity of purified RLuc mutants (light output integrated over 10 s, luminometer). Type of data set: biochemical. The procedure, abridged: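 Purified RLuc mutant sample, diluted in EB with 1% HSA, added to room-temperature 100 mM sodium phosphate (pH 7), then 1 μl of 0.5 μg/μl coelenterazine or analog mixed in manually. Light read for 10 s starting ~4 s after luciferin addition. Luminometer calibrated to photons/s against luminol standard in DMSO.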

A short description of data set [2]: Serum stability in mouse serum at 37° C. Type of data set: in vitro ADME. Particulars: mouse serum, 37° C., mono-exponential fit. The procedure, abridged: (§1)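 Luciferase diluted into mouse or rat serum at 37° C; aliquots withdrawn over time for activity, half-life from mono-exponential decay fit. Emission spectra recorded at ambient temperature with a grating spectrometer and cooled CCD detector.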

Data set [3] can be described thus: Serum stability in rat serum at 37° C. Type of data set: in vitro ADME. Particulars: mono-exponential fit. The procedure, abridged: as §1
Data set [4] can be described thus: Bioluminescence emission spectra. Type of data set: physicochemical. To be noted: emission spectrum with native coelenterazine. The procedure, abridged: as §1
Data set [5] in a line: Quantum yield measurements. Type of data set: biochemical. To be noted: for Quantum Yield (%) bc: benzyl-coelenterazine; for Quantum Yield (%) bdc: bisdeoxycoelenterazine; for Quantum Yield (%) cp: coelenterazine-cp; for Quantum Yield (%) n: coelenterazine-n; for Quantum Yield (%) native: native coelenterazine. As for the experimental part:
For quantum yield measurements, separate 1 μl drops of protein (about 2 pm) and substrate (0.2 pm) were placed in a tube, 100 μl of 100 mM sodium phosphate buffer (pH 7) was injected by the luminometer to mix, and the total light output was integrated (generally 5-10 min). For coelenterazine-n, the protein amount was increased 10 fold and the acquisition time lengthened to insure the reaction approached completion.

Data set [6] in a line: Kinetics (Michaelis-Menten fit to initial reaction velocity). Type of data set: biochemical. To be noted: for Km / kcat: coelenterazine 0.038 to 24 μM, formal standard error of fit. As for the experimental part: Kinetics: Kinetics were assessed by injecting 100 μl of 100 mM sodium phosphate buffer (pH 7) containing coelenterazine onto 1 μl of protein (diluted appropriately in EB containing 1% HSA), and recording the light output for 20 min. The final coelenterazine concentrations tested were 118, 24, 4.7, 0.94, 0.19, and 0.038 μM. The final Luciferase concentrations were in the range of 1-7 pM. Coelenterazine absorbance was corrected for, although this was only significant for the highest concentration (10% attenuation). The values were converted from photons/s to molecules/s using the data from the quantum yield measurements, converted from flux units to mass units via integration, and processed using the kinetic curve fitting program Dynafit.

For data set [7], the system named is 293T cells. As to the kind of experiment: Mammalian expression, transient transfection, light output in 293T cells. Type of data set: cell-based, human. Particulars: pcDNA 3.1 CMV plasmid, 24 hours post transfection, coelenterazine. From the text: (§2) Mammalian Expression: In order to construct mammalian expression vectors, bacterial expression vectors containing the desired mutations were used as templates for PCR, with primers designed such that the N-terminal pelB sequence would be replaced by a methionine codon and a C-terminal stop codon would replace the Myc epitope and 6×His tag. The primers also contained appropriate NheI and HindIII restriction sites to allow insertion of the product into the pcDNA 3.1 plasmid (Invitrogen). The resultant plasmids were transiently transfected using SuperFect (Qiagen) into 293T or Chinese Hamster Ovarian (CHO, ATCC# CCL-61) cells growing in 24 well plates following the manufacturer's protocol. Twenty-four hours post transfection, 0.5 μg/well of coelenterazine was added, and the plates were imaged in an IVIS 50 imaging system (Xenogen, Alameda, Calif.).

The subject of data set [8] is CHO cells. As to the kind of experiment: Mammalian expression, transient transfection, light output in CHO cells. Type of data set: cell-based, Chinese Hamster. Particulars: pcDNA 3.1 CMV plasmid, 24 hours post transfection, coelenterazine.
Source text: as §2

For data set [9], the system named is 293T cells implanted in nude mice. Description: In vivo animal imaging of BRET^2 expression with cooled CCD camera. Details: species or system mouse. To be noted: 3×10^6 transfected 293T cells s.c. in nude mice, DBC i.v. As for the experimental part: In Vivo Animal Imaging of BRET^2 Expression by Using a Cooled CCD Camera: 293T cells transiently transfected with either phRluc or pBRET^2 were harvested 24 hours post-transfection and resuspended in PBS. An aliquot of 3×10^6 cells each was injected s.c. in a set of 3 anesthetized (ketamine:xylazine 4:1) nude mice. One hour after cell injection, 20 μg/mouse of DBC diluted in D-PBS (100 μl total volume) was injected via tail vein (i.v.) and imaged immediately using the CCD camera. For the deep tissue signal detection experiment, 3×10^6 cells each were injected intravenously in another set of anesthetized nude mice, and a scan was performed half an hour later after 100 μg/mouse of DBC injection. For protein-protein interaction experiments, 293T cells were transiently transfected with either pBRET^2, pFKBP12-hRluc alone or co-transfected with pFKBP12-hRluc and pGFP^2-FRB in 1:1 DNA ratio. The cells were harvested 24 hours post-transfection and re-suspended in PBS after counting the cell number. An aliquot of 5×10^6 cells each was injected s.c. in a set of 6 nude mice. Three of these mice were kept aside, while the other 3 mice received single dose of 5 mg/kg rapamycin intra-peritonially (i.p.). After 7 hours, mice were injected intravenously with 25 μg of DBC/mouse and imaged using specified filters. […]
(In general: BRET reads energy transfer from a luciferase to a nearby fluorophore.)

The conditions of data set [10]: RLuc purified directly from Renilla reniformis; cited from earlier work.
For data set [11] the following is noted: cited from earlier work.
For data set [12] the following is noted: recombinant RLuc, hamster blood at 37° C.; cited from earlier work.
In data set [13] the test system is HT1080 fibro-sarcoma cells. As to the kind of experiment: BRET vectors with RLuc mutants fused to GFP^2, CCD camera spectral imaging in cells. Type of data set: cell-based. Particulars: Coelenterazine400a; normalized with CMV-FLuc; P<0.01. As for the experimental part: Methods: Three different mutations of RLuc, a single mutation C124A, a double mutation C124A/M185V, and a combination of eight mutations called RLuc8, were fused with GFP^2 and tested in HT1080 fibro-sarcoma cells by using CCD camera based spectral imaging. The new vectors were also tested in a small animal tumor model with implanted cells at various tissue depths.
FIG. 7 illustrates a comparative chart showing normalized donor (RLUC) and acceptor (GFP2) signal as measured from 293T cells transiently transfected with the marked plasmid vectors. BRET2 represents GFP2-Rluc, BRET-C represents GFP2-Rluc C124A, BRET-M represents Rluc C124A/M185V, BRET-Rl8 represents GFP2-Rluc8, RL represents Rluc, RL-C represents RLuc C124A, RL-M represents RLuc C124A/M185V, and Rl8 represents Rluc8. CCD camera scans were performed by adding Coelenterazine400a to the well plates. The cells were co-transfected with CMV-FLuc plasmid and scaned at the same time using D-Luciferin substrate for normalization purposes.
FIGS. 8A and 8B illustrate comparative assessments on signal quantification from HT1080 cells stably over-expressing GFP2-Rluc8 (8A) and GFP2-Rluc (8B) plasmid vectors. […] The line represents the calculated BRET ratios at each time point of measurements. […]

B1: Native RLuc: Luciferase from Renilla reniformis, native enzyme (SEQ ID NO: 1) (protein)
chain: MASKVYDPEQRKRMITGPQWWARCKQMNVLDSFINYYDSEKHAENAVIFLHGNAASSYLWRHVVPHIEPVARCIIPDLIGMGKSGKSGNGSYRLLDHYKYLTAWFELLNLPKKIIFVGHDWGACLAFHYSYEHQDKIKAIVHAESVVDVIESWDEWPDIEEDIALIKSEEGEKMVLENNFFVETMLPSKIMRKLEPEEFAAYLEPFKEKGEVRRPTLSWPREIPLVKGGKPDVVQIVRNYNAYLRASDDLPKMFIESDPGFFSNAIVEGAKKFPNTEFVKVKGLHFSQEDAPDEMGKYIKSFVERVLKNEQ
modifications: Chemically synthesized Renilla Luciferase
As usually defined, the Km is the substrate concentration at which the rate is half of its maximum. Broadly, the kcat is the maximal rate divided by the concentration of active sites. Take B1: in data set [1] (benzyl-coelenterazine, 10 s integration, absolute units), the “Activity (photons/s/mole enzyme) bc” value is listed as 5.4 × 10^22 photons/s/mole enzyme. Further, the “Activity (photons/s/mole enzyme) bdc” value in data set [1] (bisdeoxycoelenterazine, 10 s integration, absolute units (overestimation per footnote)) is 5.8 × 10^19 photons/s/mole enzyme. Besides, the “Activity (photons/s/mole enzyme) cp” value in [1] (coelenterazine-cp, 10 s integration, absolute units) was 1.7 × 10^22 photons/s/mole enzyme. In data set [1] (coelenterazine-n, 10 s integration, absolute units), the “Activity (photons/s/mole enzyme) n” value was 8.3 × 10^21 photons/s/mole enzyme. Also, the “Activity (photons/s/mole enzyme) native” value in [1] (native coelenterazine, 10 s integration, absolute units) was “(3.2 ± 0.3) × 10^22 photons/s/mole enzyme”. In addition, the “Serum τ1/2 (h) mouse” value in [2] was determined as 0.9 h. For the same molecule, the “Serum τ1/2 (h) rat” value in [3] was 0.4 h. In data set [4], the “Wavelength (nm) mean” value was 497 nm and the “Wavelength (nm) peak” value is reported as 482 nm. Besides, in [5], the “Quantum Yield (%) bc” value is given as 3.2 ± 0.04%, the “Quantum Yield (%) bdc” value is reported as “(6.1 ± 0.9) × 10^−3%”, the “Quantum Yield (%) cp” value is 4.7 ± 0.03% and the “Quantum Yield (%) n” value is on record as 6.1 ± 0.2%. The “Quantum Yield (%) native” value in [5] is 5.3 ± 0.1%. Besides, in data set [6], the Km turned out to be 2.9 ± 1 µM and the kcat amounted to 3.9 ± 0.4 s⁻¹. Besides, in data set [6] (recombinant RLuc, 24 μM coelenterazine), the Peak light flux is 1.2±0.2×10^23 photons/s/mole enzyme. In addition, in [7], the “Light output after transient transfection, 293T” value is on record as 22.5 ± 0.7 photons × 10^6/s/cm^2/steradian. The “Light output after transient transfection, CHO” value in data set [8] is reported as 11.7 ± 1.2 photons × 10^6/s/cm^2/steradian. The “average radiance on GFP^2 filter, subcutaneous implants” value in data set [9] is listed as 0.342±0.031×10^3 photons/sec/cm^2/steradian. Moreover, the “previously published emission peak” value in [10] is reported as 482 nm. Moreover, in data set [11] (RLuc purified directly from Renilla reniformis), the “reported peak light flux” value is on record as 6.5×10^22 photons/s/mole enzyme. The Michaelis constant (Km) in [11] (in the presence of benzyl-coelenterazine, read-out: previously published Km) is 2 µM. Further, the “reported peak light flux” value in data set [11] (recombinant RLuc) was 9×10^22 photons/s/mole enzyme. In [12], the “half-life in hamster blood” value is 36 min.

B2: C124A: RLuc with the C124A mutation (C152A in Liu and Escher), with Myc epitope (protein)
chain: MASKVYDPEQRKRMITGPQWWARCKQMNVLDSFINYYDSEKHAENAVIFLHGNAASSYLWRHVVPHIEPVARCIIPDLIGMGKSGKSGNGSYRLLDHYKYLTAWFELLNLPKKIIFVGHDWGAALAFHYSYEHQDKIKAIVHAESVVDVIESWDEWPDIEEDIALIKSEEGEKMVLENNFFVETMLPSKIMRKLEPEEFAAYLEPFKEKGEVRRPTLSWPREIPLVKGGKPDVVQIVRNYNAYLRASDDLPKMFIESDPGFFSNAIVEGAKKFPNTEFVKVKGLHFSQEDAPDEMGKYIKSFVERVLKNEQ
modifications: Myc epitope tag; Chemically synthesized Renilla Luciferase
On to B2, for which the “Activity (relative to RLuc) bc” value in [1] (benzyl-coelenterazine, relative to native enzyme) was found to be 0.75. Moreover, in data set [1] (bisdeoxycoelenterazine, relative to native enzyme), the “Activity (relative to RLuc) bdc” value stood at 0.68. The “Activity (relative to RLuc) cp” value in [1] (coelenterazine-cp, relative to native enzyme) is listed as 0.79. Also, the “Activity (relative to RLuc) n” value in data set [1] (coelenterazine-n, relative to native enzyme) is reported as 0.63. In data set [1] (native coelenterazine, relative to native enzyme), the “Activity (relative to RLuc) native” value was found to be 1.2 ± 0.1. For the same molecule, the “Serum τ1/2 (h) mouse” value in [2] came to 7.1 ± 0.4 h. In [3], the “Serum τ1/2 (h) rat” value was 6.6 ± 0.5 h. Moreover, in data set [4], the “Wavelength (nm) mean” value is given as 498 nm and the “Wavelength (nm) peak” value worked out at 482 nm. Further, in [5], the “Quantum Yield (%) bc” value is given as 3.6 ± 0.1%, the “Quantum Yield (%) bdc” value is given as “(7.7 ± 0.5) × 10^−3%”, the “Quantum Yield (%) cp” value is 5.2 ± 0.1% and the “Quantum Yield (%) n” value is recorded as 6.4 ± 0.01%. In data set [5], the “Quantum Yield (%) native” value amounted to 5.4 ± 0.3%. Further, in data set [6], the Km was 2.7 ± 0.8 µM and the catalytic constant (kcat) came out at 4.7 ± 0.4 s⁻¹. Moreover, in data set [7], the “Light output after transient transfection, 293T” value is on record as 62.8 ± 12.9 photons × 10^6/s/cm^2/steradian. The “Light output after transient transfection, CHO” value in [8] is recorded as 64.0 ± 4.9 photons × 10^6/s/cm^2/steradian. In addition, the “increase of normalized luciferase signal in comparison to cells expressing GFP^2-RLUC” value in data set [13] is “No significant improvements”.
